From article PMC7853477 come the findings set out here.

Experiment [1] concerns the target SARS-CoV-2 S protein receptor-binding domain RBDv1 (319–541) with C-terminal c-myc and 6xHis tags (SARS-CoV-2) (UniProt P0DTC2). Put plainly: non-reducing SDS-PAGE with gel densitometry.
Experiment [2] concerns the target SARS-CoV-2 S protein receptor-binding domain RBDv2 (320–537) with C-terminal c-myc and 10xHis tags (SARS-CoV-2) (UniProt P0DTC2). Kind of experiment: non-reducing SDS-PAGE with gel densitometry.

Regarding “SARS-CoV-2 S protein receptor-binding domain RBDv1 (319–541) with C-terminal c-myc and 6xHis tags (from UniProt P0DTC2 319-541) (domain or fragment)”, the stoichiometry N (commonly a count of units in the complex or per binding partner) in experiment [1] came to 2.

In experiment [2], “SARS-CoV-2 S protein receptor-binding domain RBDv2 (320–537) with C-terminal c-myc and 10xHis tags (from UniProt P0DTC2 320-537) (domain or fragment)” registered a percent covalent dimer of 6% and a stoichiometry N of 2.
